The term pKa denotes the negative logarithm of the acid dissociation constant.

Test in all cases: NMR
Common to all, as to details: 286 K (pH measured at 21 °C), none, MilliQ water with 3.2 mM DSS-d6 and 0.13 mM EDTA, pH adjusted with NaOH/HCl, random coil

The target in data set [1] is Glu3 (position 3, ---GGEGG---).
Data set [2] concerns the target Glu21 (UniProt position 72, …).
The target of data set [3] is Glu17 (UniProt position 68, …).
Data set [4] deals with Glu24 (UniProt position 75, …).
Where [5] appears, read: 50 mM CaCl2, total ionic strength not stated, 50 mM CaCl2 (5-fold excess over 10 mM peptide).
Setting [6] is: not stated (no added salt; varies with NaOH/HCl additions), no Ca2+, 10 mM peptide.

B1: Model peptide 1, Ac-GGEGG-NH2 (synthetic) (peptide)
chain: GGEGG
For the protein B1, the pKa was found to be 4.30 in data set [1] (setting [5]) and 4.34 in data set [1] (setting [6]).

B2: Osteocalcin P15-N26 peptide, uncarboxylated (Glu) form (peptide 5) (Homo sapiens; C23S) (peptide)
chain: PLEPRREVSELN
B2: the pKa is given as 4.28 in data set [2] (setting [5]); 4.33 in data set [2] (setting [6]); 4.25 in data set [3] (setting [5]); 4.26 in data set [3] (setting [6]); 4.20 in data set [4] (setting [5]); 4.19 in data set [4] (setting [6]).

The record behind these values is article PMC12312033.
